Data from patent EP4711453A1, “PHENYLALANINE LYASE MUTANT, AND CONJUGATE THEREOF OR PHARMACEUTICALLY ACCEPTABLE SALT THEREOF” (Peg-Bio Biopharm Co., Ltd. (Chongqing), priority 2023, dated 2024).

Legend:
[1] = Specific enzyme activity of phenylalanine lyase (trans-cinnamic acid formation, absorbance at 290 nm); type: biochemical; details: polyethylene glycol conjugates; method as for the proteins
Protocol: Phenylalanine lyase specifically catalyzes the conversion of phenylalanine into trans-cinnamic acid with the release of ammonia. […] Enzyme activity is defined as the amount of enzyme required to produce 1 µmol of trans-cinnamic acid per minute in buffer (100 mmol/L Tris-HCl, pH 8.5) at room temperature (25°C) as one unit of enzyme activity.
The specific enzyme activity of phenylalanine lyase and its mutants (i.e., PAL, PAL2, PAL3, and PAL4 proteins) prepared in Example 1 was evaluated by taking an appropriate amount of test sample and diluting it to 0.4 mg/ml using assay buffer (100 mmol/L Tris-HCl, pH 8.0). 2.9 ml of substrate solution (100 mmol/L Tris-HCl, 45 mmol/L Phe, pH 8.0) was placed in a cuvette, followed by addition of 0.1 ml of diluted test solution and immediate mixing. The changes in absorbance per minute were recorded at a wavelength of 290 nm, and the specific enzyme activity was calculated according to the formula. Enzyme activity (U/mg) = (AS−AO)VN × 10^6 /εLTV1 [formula]
Where AS and AO represent the absorbance of trans-cinnamic acid at the […] of the reaction, respectively; V is the total volume (L) of the reaction system; L is the optical path length of the cuvette (cm); ε is the molar extinction coefficient of trans-cinnamic acid (10238.1 L/(mol·cm)); T is the reaction time (min); N is the dilution factor of the test sample; V1 is the volume of test sample (ml).
The enzyme activity retention rate was calculated by comparing the specific enzyme activity of phenylalanine lyase mutants with the specific enzyme activity of the phenylalanine lyase. Table 2: Specific enzyme activity of phenylalanine lyase mutants
The specific enzyme activity of the polyethylene glycol conjugates of phenylalanine lyase and its mutants prepared in Step 1 of Example 2 was determined according to the method described in Step 1 of this example. The enzyme activity retention rate was calculated by comparing the specific enzyme activity of each conjugate with its specific enzyme activity prior to PEG modification (e.g., the enzyme activity retention rate of PL5-1 = specific enzyme activity of PL5-1 / specific enzyme activity of PAL protein). Table 3: Specific enzyme activity of PEGylated phenylalanine lyase mutants

[2] = test system: anti-PEG-IgG; design: species or system rats; details: rat, in vivo; for anti-PEG-IgG, Positive rate: sc, 0.75 mg/kg
Protocol: (§1) Polyethylene glycol conjugates of phenylalanine lyase or its mutant with different structures and modifier molecular weights, namely PL20, PL24, and PL54, were prepared according to the method described in Example 2. The phenylalanine lyase in PL20 has the amino acid sequence as set forth in SEQ ID NO: 1, and the polyethylene glycol has a molecular weight of 20K. The phenylalanine lyase in PL24 has the amino acid sequence as set forth in SEQ ID NO: 6, and the polyethylene glycol has a molecular weight of 2K. The phenylalanine lyase in PL54 has the amino acid sequence as set forth in SEQ ID NO: 6, and the polyethylene glycol has a molecular weight of 5K.
(§2) To evaluate the immunogenicity of PL20, PL24, and PL54 in animals, normal rats were selected and divided into 3 groups, with 6 rats per group (3 males and 3 females). Subcutaneous administration was performed at a dose of 0.75 mg/kg with PL54 (average degree of modification 13.6, 1.27 U/mg), PL24 (average degree of modification 13.3, 0.96 U/mg), and PL20 (average degree of modification 7.6, 1.14 U/mg) for the three groups, respectively. Administration was repeated 7 times, once weekly. Blood samples were collected 7 days after each administration. Serum anti-PEG-IgG and anti-PAL4 protein antibodies were detected by ELISA (refer to Example 5 for details). In the table, "1-7" indicated 7 days after the first administration, and "7-7" indicated 7 days after the seventh administration. x represented the average OD value of antibody detection by ELISA, and the positive rate represented the ratio of the number of antibody-positive animals to the total number of animals in the group. Table 6: Antibody titers in rats after multiple administrations of polyethylene glycol conjugates with different molecular weights

[3] = test system: anti-PAL-IgG; experiment: Immunogenicity of conjugates with different PEG molecular weights in rats: anti-PAL-IgG (ELISA); type: in vivo; details: 0.75 mg/kg s.c. once weekly
Protocol: as §1, §2

[4] = 1-7 (7 days after the first administration)
[5] = 1-7, antibody-positive animals / animals in the group
[6] = 7-7 (7 days after the seventh administration)
[7] = 7-7, antibody-positive animals / animals in the group

Molecule: PL20: polyethylene glycol conjugate of phenylalanine lyase SEQ ID NO: 1, polyethylene glycol molecular weight 20K, average degree of modification 7.6 [reference compound]
- Specific enzyme activity [1]: 1.14 U/mg
- anti-PEG-IgG antibody titer, comparison between groups [2]: higher than that in the PL24 and PL54 groups
- anti-PEG-IgG, Positive rate [2]: Positive rate: 6/6
- anti-PAL-IgG, x (average OD value of antibody detection by ELISA) [3, 4]: x=0.118
- anti-PAL-IgG, Positive rate [3, 5]: Positive rate: 1/6
- anti-PAL-IgG, x (average OD value of antibody detection by ELISA) [3, 6]: x=0.102
- anti-PAL-IgG, Positive rate [3, 7]: Positive rate: 1/6

B1: PL24: polyethylene glycol conjugate of phenylalanine lyase mutant SEQ ID NO: 6, polyethylene glycol molecular weight 2K, average degree of modification 13.3 (conjugate)
chain: MKTLSQAQSKTSSQQFSFTGNSSANVIIGNQKLTINDVARVARNGTLVSLTNNTDILQGIQASCDYINNAVKSGEPIYGVTSGFGGMANVAISREQASELQTNLVWFLKTGAGNKLPLADVRAAMLLRANSHMRGASGIRLELIKRMEIFLNAGVTPYVYEFGSIGASGDLVPLSYITGSLIGLDPSFKVDFNGKEMDAPTALRQLNLSPLTLLPKEGLAMMNGTSVMTGIAANCVYDTKILTAIAMGVHALDIQALNGTNQSFHPFIHNSKPHPGQLWAADQMISLLANSQLVRDELDGKHDYRDHELIQDRYSLRCLPQYLGPIVDGISQIAKQIEIEINSVTDNPLIDVDNQASYHGGNFLGQYVGMGMDHLRYYIGLLAKHLDVQIALLASPEFSNGLPPSLLGNRERKVNMGLKGLQICGNSIMPLLTFYGNSIADRFPTHAEQFNQNINSQGYTSATLARKSVDIFQNYVAIALMFGVQAVDLRTYKKTGHYDARASLSPATERLYSAVRHVVGQKPTSDRPYIWNDNEQGLDEHIAKISADIAAGGVIVQAVQDILPSLH
modifications: PEG 2K conjugate, ~13.3 PEG per molecule
- Specific enzyme activity [1]: 0.96 U/mg
- anti-PEG-IgG, Positive rate [2]: Positive rate: 6/6
- anti-PAL-IgG, x (average OD value of antibody detection by ELISA) [3, 4]: x=0.130
- anti-PAL-IgG, Positive rate [3, 5]: Positive rate: 4/6
- anti-PAL-IgG, x (average OD value of antibody detection by ELISA) [3, 6]: x=0.891
- anti-PAL-IgG, Positive rate [3, 7]: Positive rate: 6/6
